For the assay, the target named is hisPcrH (Pseudomonas aeruginosa T3S chaperone PcrH with an N-terminal polyHis tag) (P. aeruginosa PAO1) (UniProt Q9I325). The assay can be described thus: SEC.

Substance “PopD (native, untagged P. aeruginosa T3S translocator) (from UniProt Q9I323 1-295) (natural protein)” displayed a stoichiometry N of 1.

“PopB (native, untagged P. aeruginosa T3S translocator) (from UniProt Q9I324 1-390) (natural protein)”: the stoichiometry N stood at 1.

Values taken from PMC3171962.
